In patent publication US20250289885A1 (TRUSTEES OF BOSTON UNIVERSITY, published 2025):
Changes are numbered by the printed parent chain. Names may count otherwise.

How the values were obtained:
[1] = target: T1, Notch1-Gal4 chimeric receptor (hN1 ECD-Gal4 ICD) on CHO-K1 cells (human, UniProt P46531 19-1735); test: fluorescence microscopy of JFX650-labelled probody on CHO-K1 cells expressing Notch1-Gal4
T1 construct: extracellular domain; H2B-mTurq2 marker; also called Notch1-Ga4; NOTCH1 ECD-GAL4 ICD; not shown: transmembrane segment and Gal4 intracellular domain
T1 sequence (P46531 19-1735, stated change not applied): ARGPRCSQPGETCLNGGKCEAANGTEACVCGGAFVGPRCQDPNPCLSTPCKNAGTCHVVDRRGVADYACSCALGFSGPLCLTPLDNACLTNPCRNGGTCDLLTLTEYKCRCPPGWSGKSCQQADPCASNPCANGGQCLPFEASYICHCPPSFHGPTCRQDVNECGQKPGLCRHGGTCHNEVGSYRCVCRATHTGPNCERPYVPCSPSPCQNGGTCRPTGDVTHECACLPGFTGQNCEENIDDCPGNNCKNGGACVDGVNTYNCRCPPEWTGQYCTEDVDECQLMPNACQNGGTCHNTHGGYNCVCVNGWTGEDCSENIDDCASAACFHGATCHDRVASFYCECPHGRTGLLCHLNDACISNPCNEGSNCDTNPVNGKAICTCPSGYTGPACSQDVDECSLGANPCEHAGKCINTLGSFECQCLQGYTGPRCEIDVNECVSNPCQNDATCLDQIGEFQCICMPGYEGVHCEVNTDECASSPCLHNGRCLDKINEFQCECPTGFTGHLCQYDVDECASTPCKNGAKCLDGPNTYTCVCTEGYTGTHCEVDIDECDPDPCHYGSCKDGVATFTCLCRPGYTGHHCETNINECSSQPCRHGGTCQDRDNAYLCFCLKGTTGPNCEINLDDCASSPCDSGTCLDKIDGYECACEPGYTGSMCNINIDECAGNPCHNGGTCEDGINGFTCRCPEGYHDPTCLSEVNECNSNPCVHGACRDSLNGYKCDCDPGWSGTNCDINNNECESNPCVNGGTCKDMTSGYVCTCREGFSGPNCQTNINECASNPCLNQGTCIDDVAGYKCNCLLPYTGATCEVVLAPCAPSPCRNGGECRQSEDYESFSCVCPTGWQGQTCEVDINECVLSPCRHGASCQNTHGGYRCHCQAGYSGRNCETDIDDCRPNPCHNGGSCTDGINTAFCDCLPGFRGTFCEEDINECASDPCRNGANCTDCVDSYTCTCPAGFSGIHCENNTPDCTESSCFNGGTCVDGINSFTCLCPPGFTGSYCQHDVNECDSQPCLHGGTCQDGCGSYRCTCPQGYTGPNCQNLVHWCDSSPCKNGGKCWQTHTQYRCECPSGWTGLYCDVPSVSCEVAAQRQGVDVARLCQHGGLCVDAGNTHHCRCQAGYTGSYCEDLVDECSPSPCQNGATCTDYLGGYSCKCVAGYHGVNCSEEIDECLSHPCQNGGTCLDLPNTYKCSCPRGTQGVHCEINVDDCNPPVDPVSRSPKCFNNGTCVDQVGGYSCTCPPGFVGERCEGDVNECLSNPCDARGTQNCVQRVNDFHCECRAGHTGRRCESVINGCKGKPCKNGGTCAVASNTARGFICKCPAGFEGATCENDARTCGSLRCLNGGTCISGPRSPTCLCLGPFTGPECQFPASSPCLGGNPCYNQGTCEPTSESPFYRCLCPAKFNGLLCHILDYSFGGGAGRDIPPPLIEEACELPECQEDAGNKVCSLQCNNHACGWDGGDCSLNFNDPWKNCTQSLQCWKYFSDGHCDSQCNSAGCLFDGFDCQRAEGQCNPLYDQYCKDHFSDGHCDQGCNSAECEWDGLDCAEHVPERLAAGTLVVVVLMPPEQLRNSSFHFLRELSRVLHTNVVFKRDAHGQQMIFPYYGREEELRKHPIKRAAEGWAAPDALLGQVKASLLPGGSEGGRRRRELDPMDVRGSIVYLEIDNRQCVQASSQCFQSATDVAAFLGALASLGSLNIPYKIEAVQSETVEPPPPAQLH
From the text: FIGS. 30A and 30B present data showing anti-NRR1-based probodies can bind Notch1 receptors following deletion of the S1 loop (ΔS1) containing the NRR's furin cleavage site. The probodies used represent the anti-NRR1 scFv fused to with a soluble mutant NRR (V1667D) from Notch1, linked together via a TEV protease substrate sequence. The probodies were also fused with a HaloTag domain, which remains attached to the anti-NRR scFv following TEV cleavage. CHO-K1 cells expressing a Notch1-Gal4 chimeric receptor were treated with intact (uncleaved) and TEV protease-cleaved versions of the indicated probodies. The HaloTag domains were conjugated with a JFX650 dye to permit visualization of their binding to cell surface Notch1-Ga4 receptors. (FIG. 30A) Fluorescently labeled probody containing the S1 cleavage loop (Probody^V1667D-JF650) binds Notch1-Gal4 only in its TEV protease-cleaved state. (FIG. 30B) Fluorescently labeled probody containing the S1 cleavage loop deletion (Probody^V1667D(ΔS1)-JF650) similarly binds Notch1-Gal4 in a manner that is dependent on TEV protease cleavage. Insets represent emissions from a constitutively expressed H2B-mTurq2 expressed by the analyzed cells.

[2] = target: T2, hNotch1 receptor, stably integrated, on clonal CHO-K1 cells (human, UniProt P46531 19-2555); test: fluorescence microscopy of cell-surface bound probody on clonal CHO-K1 cells expressing hNotch1, 40-minute incubation, wash, fixation
T2 construct: whole, on cells; also called human Notch1
From the text: FIGS. 33A-33C present schematics and data showing activation of a probody/masked antibody with specificity against human Notch1 (hNotch) NRR. (FIG. 33A) Schematic depicting the TEV protease (TEVp)-mediated activation and binding of the anti-hNotch1 probody. The probody sequence used contains the V1677D mutant NRR as a “mask” and is linked to an anti-hNotch1 scFv via a linker containing a TEVp substrate sequence. Upon cleavage by TEVp, the NRR mask dissociates from the scFv and is thus able to bind its corresponding antigen. A fluorophore is linked to the probody sequence to permit visualization. (FIGS. 33B and 33C) Tests of scFv binding to hNotch1. Clonal CHO-K1 cells expressing a stably integrated hNotch1 receptor were incubated with the body alone (FIG. 33B) or with the pro body treated with TEVp (FIG. 33C). Following a 40-minute incubation, probody-containing media was removed, and cells were washed with fresh media prior to fixation and DNA staining with Hoechst-JF526 (inset). Cells were imaged to detect cell-surface bound (activated) probody and Hoechst-JF526. Binding to hNotch1 was observed only with the TEVp-cleaved probody sequence. The antibody sequence used in the body can inhibit signaling by wild-type and various disease-associated hNotch1 mutations (Wu et al. Nature 464: 1052-1057 (2010)).

[3] = target: T3, human Notch1-derived receptor overexpressed on CHO-K1 cells (human, UniProt P46531 19-1762, limits assumed); test: fluorescence microscopy of JFX650-labelled probody on CHO-K1 cells overexpressing a human Notch1-derived receptor
T3 construct: Cells also express H2B-mTurq; also called Notch1 receptors
T3 sequence (P46531 19-1762 limits assumed): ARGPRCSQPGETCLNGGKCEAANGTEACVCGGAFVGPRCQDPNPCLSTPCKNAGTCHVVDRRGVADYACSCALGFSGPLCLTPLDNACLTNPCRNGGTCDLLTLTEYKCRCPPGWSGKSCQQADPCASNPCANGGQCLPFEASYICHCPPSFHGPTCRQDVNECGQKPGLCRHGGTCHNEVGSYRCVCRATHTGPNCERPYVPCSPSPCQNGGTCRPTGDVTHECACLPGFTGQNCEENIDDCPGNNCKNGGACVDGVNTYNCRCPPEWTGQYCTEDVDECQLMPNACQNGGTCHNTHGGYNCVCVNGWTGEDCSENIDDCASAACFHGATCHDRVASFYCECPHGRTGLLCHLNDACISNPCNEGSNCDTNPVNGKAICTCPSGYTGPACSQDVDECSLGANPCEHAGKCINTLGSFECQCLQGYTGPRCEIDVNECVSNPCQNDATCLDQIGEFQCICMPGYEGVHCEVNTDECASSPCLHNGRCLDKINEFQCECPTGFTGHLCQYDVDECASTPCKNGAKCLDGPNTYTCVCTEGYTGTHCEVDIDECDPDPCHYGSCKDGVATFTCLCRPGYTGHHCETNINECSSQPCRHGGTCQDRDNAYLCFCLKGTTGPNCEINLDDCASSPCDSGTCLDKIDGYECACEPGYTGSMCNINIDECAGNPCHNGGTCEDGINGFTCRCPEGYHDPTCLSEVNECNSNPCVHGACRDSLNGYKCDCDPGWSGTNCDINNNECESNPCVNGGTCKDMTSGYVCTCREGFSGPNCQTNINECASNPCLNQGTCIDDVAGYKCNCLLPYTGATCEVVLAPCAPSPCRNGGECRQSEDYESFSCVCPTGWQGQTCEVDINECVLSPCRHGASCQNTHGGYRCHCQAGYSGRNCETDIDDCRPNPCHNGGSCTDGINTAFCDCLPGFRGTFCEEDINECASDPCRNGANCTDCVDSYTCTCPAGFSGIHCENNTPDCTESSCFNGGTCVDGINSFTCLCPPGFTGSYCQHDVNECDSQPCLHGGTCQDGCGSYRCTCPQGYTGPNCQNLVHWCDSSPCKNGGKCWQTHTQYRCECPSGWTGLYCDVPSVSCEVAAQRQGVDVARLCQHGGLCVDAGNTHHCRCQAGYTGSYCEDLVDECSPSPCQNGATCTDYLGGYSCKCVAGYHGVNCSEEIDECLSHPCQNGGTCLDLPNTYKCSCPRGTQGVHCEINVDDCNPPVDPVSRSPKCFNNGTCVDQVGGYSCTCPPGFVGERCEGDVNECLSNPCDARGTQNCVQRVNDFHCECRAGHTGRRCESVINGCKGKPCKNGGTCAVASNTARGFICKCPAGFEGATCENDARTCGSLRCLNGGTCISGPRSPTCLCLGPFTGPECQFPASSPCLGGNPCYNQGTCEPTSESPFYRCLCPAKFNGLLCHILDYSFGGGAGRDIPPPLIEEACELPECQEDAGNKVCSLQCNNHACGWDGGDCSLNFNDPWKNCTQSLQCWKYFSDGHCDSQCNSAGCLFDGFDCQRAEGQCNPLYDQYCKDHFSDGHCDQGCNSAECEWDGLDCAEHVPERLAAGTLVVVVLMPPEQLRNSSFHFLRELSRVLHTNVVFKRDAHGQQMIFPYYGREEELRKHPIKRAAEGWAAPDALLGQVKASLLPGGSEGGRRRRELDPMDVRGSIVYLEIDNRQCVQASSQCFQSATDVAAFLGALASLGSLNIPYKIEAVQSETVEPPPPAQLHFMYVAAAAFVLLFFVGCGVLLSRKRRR
Method: FIG. 37 present data showing Probody with a mask based on the wild-type Notch1-NRR binds Notch1 Receptors in a Cleavage-Dependent Manner. A probody containing the anti-NRR1 scFv was fused to a TEV protease cleavable linker and the wild-type Notch1 NRR. The probodies also contained a HaloTag for labeling with a JFX650 dye. Binding of the probody to Notch1 receptors was tested using uncleaved and TEV protease-cleaved probody. The evaluated cells were based on CHO-K1 celle overexpressing a human Notch1-derived receptor; cells also expressed H2B-mTurq as a fluorescent marker (inset).

[4] = target: T4, mouse Notch1 NRR, non-mutated (WT), in the control receptor HA-Halo-antiNRR-TEVs-NRR-GAL4VP64 (mouse, UniProt Q01705 1427-1752); test: anti-HA immunoblot (aHA-HRP) of cell lysate and conditioned media of HEK293-FT cells expressing the receptor, after TEVp cleavage of the scFv-NRR linker
T4 construct: Domain of a synthetic receptor on cells; also called non-mutated NRR control; Mouse NRR1-WT
T4 sequence (Q01705 1427-1752 limits assumed, change not shown): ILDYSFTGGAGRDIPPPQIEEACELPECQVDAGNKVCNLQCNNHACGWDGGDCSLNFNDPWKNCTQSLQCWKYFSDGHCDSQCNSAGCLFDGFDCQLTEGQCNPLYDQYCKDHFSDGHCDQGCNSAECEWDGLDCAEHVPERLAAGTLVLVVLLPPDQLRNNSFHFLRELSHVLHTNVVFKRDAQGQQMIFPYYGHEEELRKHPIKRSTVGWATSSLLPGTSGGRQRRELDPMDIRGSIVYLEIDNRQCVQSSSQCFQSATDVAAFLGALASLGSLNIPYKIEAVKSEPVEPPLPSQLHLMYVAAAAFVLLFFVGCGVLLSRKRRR
Method: (§1) HEK293-FT cells were transfected with pcDNA3-based plasmids encoding the indicated receptor with TEVs substrate linker and N-terminal HA tag. (FIG. 11A) cell lysates and conditioned anti-HA immunoblots after 3 hours of TEVp incubation, overwise indicated. FL; full-length receptor, NTF; N-terminal fragment, Ab; ‘A-2’ variant of the anti-NRR1 scFv. (FIG. 11B) Inventors further evaluated the efficiency of TEVs cleavage by comparing an anti-HA blot (which stains all copies of the receptor, including those in the secretory pathway) to a streptavidin blot probing for surface-bound receptor copies by labelling receptors with a cell-impermeant halo-ligand-biotin conjugate. […] Immunoblot of cell lysates and conditioned media of HEK293-FT expressing the ‘V1677D’ design by transient transfection. Cells were stained with cell-impermeant halo-biotin prior to TEVp addition. Cell lysates and conditioned media were collected for immunoblot analysis after 3 hours. Colored triangle markers denote FL (top arrow of top blot), NTF (middle arrow of top blot; top arrow of bottom blot) and cleaved NTF (bottom arrows of both blots) species.
(§2) Inventors then evaluated whether these receptors have different TEVs cleavage efficiencies and anti-NRR1 scFv dissociation kinetics. They immunoblotted for the anti-NRR1 scFv mask in cell lysates and conditioned media in cells expressing the non-mutated WT, V1677D, and A1702P NRR receptors in the absence or addition of exogenous TEVp. Inventors than chose to analyze the V1677D and A1702P mutations since they were the designs with the highest and lowest protease-induced reporter activation, respectively.

[5] = target: T5, mouse Notch1 NRR with V1677D, in the ProNotch receptor (mouse, UniProt Q01705 1427-1752); test: as above
T5 construct: Domain of a synthetic receptor on cells; also called NRR(V1677D); Mouse NRR1-V1677D
T5 sequence (Q01705 1427-1752 V1666D limits assumed): as the sequence (Q01705 1427-1752 limits assumed, change not shown) above, with V240D counted along it
Method: as §1, §2

[6] = target: T6, mouse Notch1 NRR with the T-ALL mutation A1702P, in the receptor design (mouse, UniProt Q01705 1427-1752); test: as above
T6 construct: also called A1691P in mouse Notch1
T6 sequence (Q01705 1427-1752 A1691P limits assumed): as the sequence (Q01705 1427-1752 limits assumed, change not shown) above, with A265P counted along it
Method: as §1, §2

B1: TEV-cleavable Anti-Notch1 probody, Genentech scFv, S1 loop deletion (HaloTag-anti-NRR1-scFv-TEVcs-msNRR1^V1677D-deltaS1), intact (uncleaved) (other)
chain: YPYDVPDYATGMAEIGTGFPFDPHYVEVLGERMHYVDVGPRDGTPVLFLHGNPTSSYVWRNIIPHVAPTHRCIAPDLIGMGKSDKPDLGYFFDDHVRFMDAFIEALGLEEVVLVIHDWGSALGFHWAKRNPERVKGIAFMEFIRPIPTWDEWPEFARETFQAFRTTDVGRKLIIDQNVFIEGTLPMGVVRPLTEVEMDHYREPFLNPVDREPLWRFPNELPIAGEPANIVALVEEYMDWLHQSPVPKLLFWGTPGVLIPPAEAARLAKSLPNCKAVDIGPGLNLLQEDNPDLIGSEIARWLSTLEISGGGGGSTGDGGGGEVQLVESGGGLVQPGGSLRLSCAASGFTFSSYWIHWVRQAPGKGLEWVARINPPNRSNQYADSVKGRFTISADTSKNTAYLQMNSLRAEDTAVYYCARGSGFRWVMDYWGQGTLVTVSSGGSSRSSSSGGGGSGGGGDIQMTQSPSSLSASVGDRVTITCRASQDVSTAVAWYQQKPGKAPKLLIYSASFLYSGVPSRFSGSGSGTDFTLTISSLQPEDFATYYCQQFYTTPSTFGQGTKVEIKGSNSGGTLEGGGSGENLYFQGGGGGRTGGGSEQKLISEEDLGGGSILDYSFTGGAGRDIPPPQIEEACELPECQVDAGNKVCNLQCNNHACGWDGGDCSLNFNDPWKNCTQSLQCWKYFSDGHCDSQCNSAGCLFDGFDCQLTEGQCNPLYDQYCKDHFSDGHCDQGCNSAECEWDGLDCAEHVPERLAAGTLVLVVLLPPDQLRNNSFHFLRELSHVLHTNVVFKRDAQGQQMIFPYYGMDIRGSIDYLEIDNRQCVQSSSQCFQSATDVAAFLGALASLGSLNIPYKIEAVKSEPVEGPV
modifications: HaloTag domain conjugated with JFX650 dye
notes: also called Probody^V1667D(ΔS1); Probody^V1667D(ΔS1)-JF650
binding result [1]: no binding

B2: TEV-cleavable Anti-Notch1 probody, Genentech scFv (HaloTag-anti-NRR1-scFv-TEVcs-msNRR1^V1677D), intact (uncleaved) (other)
chain: YPYDVPDYATGMAEIGTGFPFDPHYVEVLGERMHYVDVGPRDGTPVLFLHGNPTSSYVWRNIIPHVAPTHRCIAPDLIGMGKSDKPDLGYFFDDHVRFMDAFIEALGLEEVVLVIHDWGSALGFHWAKRNPERVKGIAFMEFIRPIPTWDEWPEFARETFQAFRTTDVGRKLIIDQNVFIEGTLPMGVVRPLTEVEMDHYREPFLNPVDREPLWRFPNELPIAGEPANIVALVEEYMDWLHQSPVPKLLFWGTPGVLIPPAEAARLAKSLPNCKAVDIGPGLNLLQEDNPDLIGSEIARWLSTLEISGGGGGSTGDGGGGEVQLVESGGGLVQPGGSLRLSCAASGFTFSSYWIHWVRQAPGKGLEWVARINPPNRSNQYADSVKGRFTISADTSKNTAYLQMNSLRAEDTAVYYCARGSGFRWVMDYWGQGTLVTVSSGGSSRSSSSGGGGSGGGGDIQMTQSPSSLSASVGDRVTITCRASQDVSTAVAWYQQKPGKAPKLLIYSASFLYSGVPSRFSGSGSGTDFTLTISSLQPEDFATYYCQQFYTTPSTFGQGTKVEIKGSNSGGTLEGGGSGENLYFQGGGGGRTGGGSEQKLISEEDLGGGSILDYSFTGGAGRDIPPPQIEEACELPECQVDAGNKVCNLQCNNHACGWDGGDCSLNFNDPWKNCTQSLQCWKYFSDGHCDSQCNSAGCLFDGFDCQLTEGQCNPLYDQYCKDHFSDGHCDQGCNSAECEWDGLDCAEHVPERLAAGTLVLVVLLPPDQLRNNSFHFLRELSHVLHTNVVFKRDAQGQQMIFPYYGHEEELRKHPIKRSTVGWATSSLLPGTSGGRQRRELDPMDIRGSIDYLEIDNRQCVQSSSQCFQSATDVAAFLGALASLGSLNIPYKIEAVKSEPVEGPV
modifications: HaloTag domain conjugated with a fluorescent HaloTag-ligand dye in the binding tests (JFX650; Halo-JF635i in paragraph 360)
notes: Secreted protein; also called Probody^V1667D; Probody^V1667D-JF650
binding result [1]: no binding
binding result [2]: no binding

B3: TEV-cleavable Anti-Notch1 probody, Genentech scFv, Wild-type NRR (HaloTag-anti-NRR1-scFv-TEVcs-msNRR1^WT), intact (uncleaved) (other)
chain: B2 chain with D849V
modifications: HaloTag labelled with JFX650 dye
notes: also called Probody with a mask based on the wild-type Notch1-NRR
binding result [3]: no binding

B4: 'A-2' variant of the anti-NRR1 scFv (mask domain) (scFv)
scFv: EVQLVESGGGLVQPGGSLRLSCAASGFTFSSYWIHWVRQAPGKGLEWVARINPPNRSNQYADSVKGRFTISADTSKNTAYLQMNSLRAEDTAVYYCARGSGFRWVMDYWGQGTLVTVSSGGSSRSSSSGGGGSGGGGDIQMTQSPSSLSASVGDRVTITCRASQDVSTAVAWYQQKPGKAPKLLIYSASFLYSGVPSRFSGSGSGTDFTLTISSLQPEDFATYYCQQFYTTPSTFGQGTKVEIK
notes: Tested as the N-terminal mask domain of receptors HA-Halo-antiNRR-TEVs-NRR-GAL4VP64, that is on the same polypeptide as the NRR until TEVp cleaves the linker; carries HA tag and HaloTag at its N-terminus; also called A2 scFv
binding result [4]: binds
binding result [5]: binds
binding result [6]: binds
